# Where two headings read alike, the source gives them in different places.
# T1: Dmc1 (Saccharomyces cerevisiae) (UniProt P25453)
# T1 sequence: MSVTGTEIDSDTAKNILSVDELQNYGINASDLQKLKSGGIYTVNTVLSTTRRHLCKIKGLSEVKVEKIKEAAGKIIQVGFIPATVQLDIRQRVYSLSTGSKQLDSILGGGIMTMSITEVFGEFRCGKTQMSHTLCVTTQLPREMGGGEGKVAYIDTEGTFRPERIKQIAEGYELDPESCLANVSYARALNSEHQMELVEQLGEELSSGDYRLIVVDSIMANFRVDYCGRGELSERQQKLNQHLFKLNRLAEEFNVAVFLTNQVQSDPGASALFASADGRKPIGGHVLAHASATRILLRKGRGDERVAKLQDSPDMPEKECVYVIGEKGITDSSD
# T2: Dmc1;Mei5-Sae3 complex (Saccharomyces cerevisiae;Saccharomyces cerevisiae) (UniProt P25453+P32489+P89114)
# T2 sequence 1: T1 sequence
# T2 sequence 2: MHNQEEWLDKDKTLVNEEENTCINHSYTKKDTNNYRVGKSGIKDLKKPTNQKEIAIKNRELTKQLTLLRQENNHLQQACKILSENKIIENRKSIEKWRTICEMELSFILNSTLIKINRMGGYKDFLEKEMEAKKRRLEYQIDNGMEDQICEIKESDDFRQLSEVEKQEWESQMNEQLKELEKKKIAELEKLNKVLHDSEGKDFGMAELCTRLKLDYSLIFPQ
# T2 sequence 3: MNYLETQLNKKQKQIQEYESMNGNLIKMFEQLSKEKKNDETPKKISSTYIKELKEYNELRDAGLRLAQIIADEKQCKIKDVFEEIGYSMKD
# T3: Dmc1 (Saccharomyces cerevisiae, UniProt P25453 1-334)
# T3 sequence: T1 sequence
# T4: Dmc1;Mei5-Sae3 complex (Saccharomyces cerevisiae;Saccharomyces …, UniProt P25453;P32489;P89114 1-334;1-222;1-91, |)
# T4 sequence 1: T1 sequence
# T4 sequence 2: T2 sequence 2
# T4 sequence 3: T2 sequence 3
# B1: dT7 (mixed)
# DNA 1: TGGCGACGCAGCGAGGCTTTTTTT
# DNA 2: GCCTCGCTGCCGTCGCCA
# B2: Oligo 1 (80-mer) (ssDNA)
# DNA: TTATGTTCATTTTTTATATCCTTTACTTTATTTTCTCTGTTTATTCATTTACTTATTTTGTATTATCCTTATCTTATTTA
# B3: dT13 (mixed)
# DNA 1: TGGCGACGGCAGCGAGGCTTTTTTTTTTTTT
# DNA 2: GCCTCGCTGCCGTCGCCA
# B4: Oligo 4 (90-mer) (ssDNA)
# DNA: AAATCAATCTAAAGTATATATGAGTAAACTTGGTCTGACAGTTACCAATGCTTAATCAGTGAGGCACCTATCTCAGCGATCTGTCTATTT
# B5: dT9 (mixed)
# DNA 1: TGGCGAGCAGCGAGGCTTTTTTTTT
# DNA 2: GCCTCGCTGCCGTCGCCA
# What was measured:
# [1] = target: T1, Dmc1 (Saccharomyces cerevisiae); experiment: smFRET, RPA displacement; details: internal Cy3 between T12 and T18
# [2] = target: T2, Dmc1;Mei5-Sae3 complex (Saccharomyces cerevisiae;Saccharomyces cerevisiae); experiment: smFRET + GFP colocalization; details: internal Cy3 between T12 and T21
# [3] = target: T3, Dmc1; experiment: smFRET
# [4] = target: T4, Dmc1;Mei5-Sae3 complex; experiment: nuclease protection
# [5] = target: T4, Dmc1;Mei5-Sae3 complex; experiment: smFRET
# [6] = target: T5, RPA (Saccharomyces cerevisiae, UniProt P22336;P26754;P26755 1-621;1-273;1-122); experiment: EMSA
# T5 sequence (P22336 whole entry, chain 1 of 3): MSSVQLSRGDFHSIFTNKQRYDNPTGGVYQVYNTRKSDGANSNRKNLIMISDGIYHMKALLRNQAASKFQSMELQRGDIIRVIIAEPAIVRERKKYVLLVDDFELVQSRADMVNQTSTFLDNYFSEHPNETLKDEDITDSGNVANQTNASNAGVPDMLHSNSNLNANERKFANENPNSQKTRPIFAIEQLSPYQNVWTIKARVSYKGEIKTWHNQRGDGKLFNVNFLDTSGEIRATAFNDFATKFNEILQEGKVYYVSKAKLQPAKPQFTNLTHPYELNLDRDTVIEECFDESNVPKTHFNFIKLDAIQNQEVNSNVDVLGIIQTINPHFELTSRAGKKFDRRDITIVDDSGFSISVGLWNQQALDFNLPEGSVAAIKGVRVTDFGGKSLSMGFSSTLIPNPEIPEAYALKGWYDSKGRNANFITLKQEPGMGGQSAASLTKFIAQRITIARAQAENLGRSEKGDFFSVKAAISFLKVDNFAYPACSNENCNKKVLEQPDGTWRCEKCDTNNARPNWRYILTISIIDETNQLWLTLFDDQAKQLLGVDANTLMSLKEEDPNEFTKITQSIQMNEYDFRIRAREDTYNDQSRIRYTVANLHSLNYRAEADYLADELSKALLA
# T5 sequence (P26754 whole entry, chain 2 of 3): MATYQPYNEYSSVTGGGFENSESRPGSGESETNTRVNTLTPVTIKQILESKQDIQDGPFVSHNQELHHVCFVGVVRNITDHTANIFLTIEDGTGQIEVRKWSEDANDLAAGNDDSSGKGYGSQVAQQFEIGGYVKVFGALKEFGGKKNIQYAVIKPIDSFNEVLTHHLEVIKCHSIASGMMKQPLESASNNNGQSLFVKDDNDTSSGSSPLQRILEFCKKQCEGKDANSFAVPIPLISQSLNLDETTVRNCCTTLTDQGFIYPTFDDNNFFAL
# T5 sequence (P26755 whole entry, chain 3 of 3): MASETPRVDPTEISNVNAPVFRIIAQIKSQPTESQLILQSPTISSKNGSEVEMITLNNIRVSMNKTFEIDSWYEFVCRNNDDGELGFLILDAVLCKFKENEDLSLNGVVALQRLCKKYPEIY
# [7] = target: RPA-GFP (Rfa2-eGFP) (Saccharomyces cerevisiae, UniProt P22336;P26754;P26755 1-621;1-273;1-122); experiment: EMSA
# RPA-GFP (Rfa2-eGFP), sequence (P22336 whole entry, chain 1 of 3): as the sequence (P22336 whole entry, chain 1 of 3) above
# RPA-GFP (Rfa2-eGFP), sequence (P26754 whole entry, chain 2 of 3): as the sequence (P26754 whole entry, chain 2 of 3) above
# RPA-GFP (Rfa2-eGFP), sequence (P26755 whole entry, chain 3 of 3): as the sequence (P26755 whole entry, chain 3 of 3) above
# [8] = target: T3, Dmc1; experiment: smFRET; remark: listed apart in the source
# [9] = target: T5, RPA; experiment: smFRET
molecule,measurement,setting,value
TGGCGACGGCAGCGAGGCTTTTTTTTTTTTTTTTTTTTTTTTTTTTTT / GCCTCGCTGCCGTCGCCA [dT12+18],Kd,[1],1.9 µM
TGGCGACGGCAGCGAGGCTTTTTTTTTTTTTTTTTTTTTTTTTTTTTTTTT / GCCTCGCTGCCGTCGCCA [dT12+21],binding signal (% RPA displaced),[2],50
B1,Kd,[3],1.73 ± 0.077 µM
B2,binding result,[4],binds
B3,binding result,[5],binds
B4,binding result,[6],binds
same,binding result,[7],binds
B5,Kd,[8],1.4 ± 0.039 µM
same,binding result,[9],binds

# — PMC11514449
